Article PMC5725599, “Insights into substrate binding of ferulic acid esterases by arabinose and methyl hydroxycinnamate esters and molecular docking” (Scientific Reports, 2017)

How the values were obtained:
[1] = substrate: COC(=O)/C=C/c1ccc(O)c(O)c1; experiment: HPLC of released free acid, Michaelis-Menten nonlinear fit; assay type: biochemical, Aspergillus niger; conditions: 100 mM MOPS-NaOH pH 6.0, 45 °C, 30 min, substrate stock in DMSO
Text: (§1) HPLC of released free acid, Michaelis-Menten nonlinear fit on AnFaeA

[2] = substrate: COC(=O)/C=C/c1ccc(O)c(OC)c1; experiment: as above; assay type: biochemical, Aspergillus niger; conditions: 100 mM MOPS-NaOH pH 6.0, 45 °C, 30 min, substrate stock in DMSO
Text: as §1

B1: AnFaeA (Aspergillus niger) (protein)
chain: ASTQGISEDLYNRLVEMATISQAAYADLCNIPSTIIKGEKIYNAQTDINGWILRDDTSKEIITVFRGTGSDTNLQLDTNYTLTPFDTLPQCNDCEVHGGYYIGWISVQDQVESLVKQQASQYPDYALTVTGHSLGASMAALTAAQLSATYDNVRLYTFGEPRSGNQAFASYMNDAFQVSSPETTQYFRVTHSNDGIPNLPPADEGYAHGGVEYWSVDPYSAQNTFVCTGDEVQCCEAQGGQGVNDAHTTYFGMTSGACTW
notes: recombinant, expressed in Pichia pastoris as described previously
Km [1]: 870 ± 170 µM
Km [2]: 1420 ± 260 µM
